One series has as its target T1, DmGS2 (Drosophila melanogaster, UniProt P20478).
T1 construct: gene Gs2; 367 residues per monomer modelled
T1 sequence (P20478 1-369): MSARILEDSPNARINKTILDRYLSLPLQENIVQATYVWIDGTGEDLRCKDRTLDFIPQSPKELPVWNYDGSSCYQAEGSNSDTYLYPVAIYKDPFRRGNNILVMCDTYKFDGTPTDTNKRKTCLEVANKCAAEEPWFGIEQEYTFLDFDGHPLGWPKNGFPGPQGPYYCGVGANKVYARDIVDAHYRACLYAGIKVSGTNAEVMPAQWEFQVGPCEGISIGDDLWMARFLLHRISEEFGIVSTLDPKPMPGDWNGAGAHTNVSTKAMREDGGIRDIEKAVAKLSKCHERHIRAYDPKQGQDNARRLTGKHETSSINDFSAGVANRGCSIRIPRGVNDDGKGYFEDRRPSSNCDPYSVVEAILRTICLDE
The series can be described thus: X-ray crystal structure, […] Å. The series is classed as binding. The conditions noted are these: active site; crystallised with ATP and MgCl2, ADP found in all 10 monomers.

Substrate in series [1]: N
The series can be described thus: purified protein. Conditions: saturating glutamate, 12 mM ATP, 50 mM MgCl2, 50 mM imidazole-HCl pH 7.0, 37 °C.

Substrate in series [2]: NC(=O)CC[C@H](N)C(=O)O
The series can be described thus: purified protein. Conditions: saturating hydroxylamine, 3 mM MnCl2, 0.4 mM ADP, 20 mM potassium arsenate, 40 mM imidazole pH 7.9, 37 °C. The series is classed as biochemical, Drosophila melanogaster.

Substrate in series [3]: N[C@@H](CCC(=O)O)C(=O)O
The series can be described thus: purified protein. Conditions: saturating NH4Cl, 12 mM ATP, 50 mM MgCl2, 50 mM imidazole-HCl pH 7.0, 37 °C. The series is classed as biochemical, Drosophila melanogaster.

Substrate in series [4]: NO
The series can be described thus: purified protein. The series is classed as biochemical, Drosophila melanogaster. Conditions: saturating glutamine, 3 mM MnCl2, 0.4 mM ADP, 20 mM potassium arsenate, 40 mM imidazole pH 7.9, 37 °C.

Series [5] deals with the molecule itself. The series can be described thus: AUC; sedimentation velocity, 20 °C, samples 500 μL at 1.0 mg/mL, absorbance at 280 nm, SEDFIT85.
Series [6] deals with the molecule itself. Put plainly: crystal structure; DmGS2 with ADP bound; protein 12 mg/mL in 20 mM Tris-HCl pH 7.9, 150 mM NaCl, 5 mM MgCl2, 5 mM ATP, 1 mM sodium 2-mercaptoethanesulphonate; hanging-drop vapor diffusion; 2.12 Å.

Positions count from the first letter of the chain named. In names and notes the source's numbering stands.

For the molecule `Nc1ncnc2c1ncn2[C@@H]1O[C@H](COP(=O)(O)OP(=O)(O)O)[C@@H](O)[C@H]1O` [ADP], at DmGS2, the “X-ray crystal structure, 2.12 Å” value is “A structure was obtained for the DmGS2 decamer in complex with ADP”.

B1: DmGS2 (Drosophila melanogaster; P214A) (protein)
chain: T1 sequence (P20478 1-369) with P214A
notes: 367 residues per monomer modelled
As for B1, in “purified protein [1]”, the Km is recorded as 0.11 ± 0.03 mM, the Vmax was determined as 5.5 µM/min, the kcat amounted to 0.0183 s⁻¹ and the kcat/Km was 177 M⁻¹ s⁻¹. Moreover, in “purified protein [2]”, the Km amounted to 30.6 ± 6.1 mM, the Vmax worked out at 150 µM/min, the kcat came out at 0.5 ± 0.0333 s⁻¹ and the kcat/Km is 16.8 ± 2.33 M⁻¹ s⁻¹. Also, in the series “purified protein [3]”, the Km is on record as 6.8 ± 2.2 mM, the Vmax was 10.6 µM/min, the catalytic constant (kcat) amounted to 0.0355 ± 0.00183 s⁻¹ and the kcat/Km was 6.33 ± 2.17 M⁻¹ s⁻¹. In “purified protein [4]”, the Michaelis-Menten constant (Km) stood at 1.5 ± 0.2 mM and the Vmax amounted to 88 µM/min.

B2: DmGS2 (Drosophila melanogaster; E311A) (protein)
chain: T1 sequence (P20478 1-369) with E311A
notes: as for B1
Take B2: in the series “purified protein [3]”, the Km is 26.2 ± 2.2 mM, the Vmax turned out to be 5.5 µM/min, the kcat is 0.0183 ± 0.00133 s⁻¹ and the kcat/Km was 0.7 ± 0.00833 M⁻¹ s⁻¹.

B3: Drosophila melanogaster glutamine synthetase 2 (DmGS2), wild type (enzyme, UniProt P20478 1-369, looked up)
chain: T1 sequence (P20478 1-369)
notes: Glutamine synthetase 2, cytoplasmic (DmGS2), Drosophila melanogaster; full-length cDNA of mature DmGS2, GenBank X52759; residues numbered to 369; 367 residues of each monomer seen in the crystal; Decamer of two stacked pentamers in the crystal (with ADP); pentamer and decamer in solution by AUC; No removal of the tags is described; also called WT DmGS2; WT; copies: 10
Regarding B3, the Michaelis-Menten constant (Km) worked out at 0.47 ± 0.03 mM in “purified protein [1]”, 43.1 ± 9.7 mM in the series “purified protein [2]”, 5.9 ± 1.6 mM in “purified protein [3]” and 2.0 ± 0.4 mM in the series “purified protein [4]”. In addition, the Vmax in the series “purified protein [1]” turned out to be 4.6 µM/min; in the series “purified protein [2]”, 120 µM/min; in “purified protein [3]”, 9.2 µM/min; in the series “purified protein [4]”, 64 µM/min. For the same molecule, the kcat in the series “purified protein [1]” worked out at 0.0153 s⁻¹; in the series “purified protein [2]”, 0.4 ± 0.0333 s⁻¹; in the series “purified protein [3]”, 0.0307 ± 0.00133 s⁻¹. The kcat/Km was determined as 32.7 M⁻¹ s⁻¹ in “purified protein [1]”, 9.67 ± 1.33 M⁻¹ s⁻¹ in “purified protein [2]” and 5.67 ± 1.33 M⁻¹ s⁻¹ in “purified protein [3]”. For the same molecule, the “stoichiometry N” value in series [5] came to 5; in series [6], 10.

The record behind these values is paper PMC7764910, “Structural Insight into the Contributions of the N-Terminus and Key Active-Site Residues to the Catalytic Efficiency of Glutamine Synthetase 2” (Biomolecules, 2020).
